The target of experiment [1] is T1, cynomolgus monkey GITR expressed on the cell surface (Macaca fascicularis (cynomolgus monkey)).
T1 construct: whole, on cells; also called MfGITR; Jurkat/hCD20/MfGITR cells
In words: flow cytometry on Jurkat/hCD20/MfGITR cells; max MFI over secondary antibody alone. As to the method: (§1) Flow cytometry was used to evaluate mAb1 binding to Jurkat/hCD20/hGITR cells and Jurkat/hCD20/MfGITR cells. Jurkat/hCD20 cells were used as a negative control cell line for GITR binding. Cells were added to a 96-well V-bottom plate (2×10⁵ to 4×10⁵ cells/well) and incubated in Fc block solution, followed by successive incubation on ice with primary antibody (mAb1 or IgG1 isotype control) at final concentrations ranging from 18 pM to 300 nM and a secondary antibody (AF647-conjugated anti-human IgG) at 5 μg/mL. Cells were then stained with LIVE/DEAD Fixable Green Dead Cell Stain according to the manufacturer's instructions. […] Data were analyzed with Flow.lo software. For EC₅₀ (effective concentration at 50% activity) determinations, measured geometric MFI values were analyzed using a 4-parameter logistic equation over a 9-point response curve with GraphPad Prism. The fold binding was determined by taking the ratio of the highest MFI on the curve to the MFI of the wells containing secondary antibody only.
(§2) ^a The maximum MFI was the highest mean MFI value within the concentration range tested (18 pM to 300 nM). ^b Fold binding was calculated as the maximum MFI above background (secondary antibody alone). h, Human; Mf, Macaca fascicularis (cynomolgus monkey); ND, Not determined because concentration-dependent binding was not observed
Background: In flow cytometry, cells or beads pass a laser one at a time.

Experiment [2] concerns the target T2, hGITR.mFc (dimeric recombinant human GITR ectodomain protein, mouse Fc fusion) (human).
T2 construct: also called dimeric human GITR; dimeric GITR
T2 chain: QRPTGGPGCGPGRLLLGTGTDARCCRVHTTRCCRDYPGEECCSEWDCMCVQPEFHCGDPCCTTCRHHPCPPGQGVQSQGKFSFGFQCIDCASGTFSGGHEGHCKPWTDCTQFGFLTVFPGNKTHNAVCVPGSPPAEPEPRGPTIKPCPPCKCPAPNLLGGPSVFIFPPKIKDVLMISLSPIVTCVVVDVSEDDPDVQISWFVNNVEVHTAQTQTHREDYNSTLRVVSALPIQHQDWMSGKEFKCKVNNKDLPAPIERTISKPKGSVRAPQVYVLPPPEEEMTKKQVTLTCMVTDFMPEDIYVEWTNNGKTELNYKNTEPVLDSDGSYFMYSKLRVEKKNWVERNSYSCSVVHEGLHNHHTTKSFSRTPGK
In words: SPR Biacore 2000 25C; CHOt supernatant antibody captured on anti-human Fc; 50 nM hGITR.mFc. As to the method: Biacore experiments for antibodies secreted in conditioned culture medium were performed as follows. Using a Biacore 2000 instrument at 25° C., antibodies were captured for 80 seconds at a flow rate of 8 uL/min on a CM5 anti-humanFc-coupled surface. Approximately 1000-2000 RU of each antibody were captured. 100 nM hGITR.mmH (soluble monomeric hGITR, SEQ ID NO: 45) or 50 nM hGITR.mFc (dimeric Macaca fasicularis GITR, SEQ ID NO: 46) were injected over this surface for 2 minutes at a flow rate of 50 uL/min. Dissociation was measured for 2 minutes. The KD and t_{1/2} were calculated by fitting the double-referenced sensorgrams to a 1:1 binding model.
Background: In SPR one partner is held on a chip, and binding of the other changes the refractive index at the surface.

Experiment [3] deals with T3, hGITR.mmH (soluble monomeric recombinant human GITR ectodomain protein) (human).
T3 construct: also called monomeric human GITR
T3 chain: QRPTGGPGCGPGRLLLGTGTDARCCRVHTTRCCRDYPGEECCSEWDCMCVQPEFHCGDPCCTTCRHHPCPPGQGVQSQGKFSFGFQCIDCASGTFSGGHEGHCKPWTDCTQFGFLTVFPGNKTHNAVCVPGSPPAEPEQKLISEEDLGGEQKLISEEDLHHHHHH
In words: blocking ELISA: 1.5 nM hGITR.mmH pre-incubated with antibody, binding to plate-coated hGITR-L.

Experiment [4] addresses T2, hGITR.mFc (dimeric recombinant human …). The experiment is described as follows: SPR Biacore T-200; purified antibody captured on anti-human Fc; 5 nM hGITR.mFc. As to the method: For purified antibodies, Biacore experiments were performed as follows. Using a Biacore T-200 instrument, antibodies were captured for 30 seconds at a flow rate of 8 uL/min on a CM5 anti-humanFc-coupled surface. Approximately 120 RU of each antibody were captured. 10 nM hGITR.mmH (soluble monomeric hGITR, SEQ ID NO: 45) or 5 nM hGITR.mFc (dimeric Macaca fasicularis GITR, SEQ ID NO: 46) were injected over this surface for 5 minutes at a flow rate of 50 uL/min. Dissociation was measured for 10 min. The KD and t_{1/2} were calculated by fitting the double-referenced sensorgrams to a 1:1 binding model.

In experiment [5] the target is T4, Jurkat/hCD20 cells (human CD20, no GITR; negative control cell line) (human, UniProt P11836 1-297).
T4 construct: whole, on cells; Control cell line without engineered GITR; the only named engineered protein on it is hCD20
T4 sequence (looked up): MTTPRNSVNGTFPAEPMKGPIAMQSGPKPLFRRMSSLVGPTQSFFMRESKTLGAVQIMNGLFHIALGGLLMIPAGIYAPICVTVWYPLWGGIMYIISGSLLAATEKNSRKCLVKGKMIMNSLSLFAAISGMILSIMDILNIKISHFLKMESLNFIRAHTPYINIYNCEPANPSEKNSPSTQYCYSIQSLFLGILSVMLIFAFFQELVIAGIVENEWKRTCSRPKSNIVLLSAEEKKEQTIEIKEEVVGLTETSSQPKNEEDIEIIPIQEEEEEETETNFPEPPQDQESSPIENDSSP
In words: flow cytometry on Jurkat/hCD20 control cells; max MFI over secondary antibody alone. Here is the method: as §1, §2

B1: mAb1 (antibody, human IgG1, kappa, V domains shown)
VH: QVQLQESGPGLVKPSETLSLTCIVSGGSISGYFWNWIRQPPGKGLEWIGYIYYSGTTIYNPSLKSRFTISLDTSKNQFSLKLTSVTAADTAVYYCARESYDPSPRYFDHWGQGTLVTVSS
VL: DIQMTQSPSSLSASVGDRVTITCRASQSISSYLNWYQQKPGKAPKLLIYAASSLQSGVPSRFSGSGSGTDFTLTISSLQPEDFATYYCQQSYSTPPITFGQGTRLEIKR
notes: Human IgG1; N101D variant of CompAb1; also called N101D Variant; N101D
The Kd is a measure of binding affinity in units of concentration. Broadly, the IC50 is the concentration needed to halve the response being measured. B1: the “Fold Binding” value turned out to be 277 fold in experiment [1] and 1.06 fold in experiment [5]. The Kd in experiment [2] was 81.3 pM; in experiment [4], 104 pM. In addition, the t1/2 in experiment [2] came to 5.75 h; in experiment [4] it was 1.2 h. Also, the IC50 in experiment [3] was 6660 pM.

Source of the values: patent US20240076396A1 (Regeneron, published 2024).
